Experimental data taken from patent US20180118789A1 (REGENTS OF THE UNIVERSITY OF MINNESOTA, published 2018).
Non-standard residues stand in square brackets, D forms with d. Dap = NC[C@H](N)C(=O)O

How the values were obtained:
Test in all cases: cell-based or functional assay
[1] = molecular target: T1, mouse melanocortin 5 receptor (mouse, UniProt P41149 1-325)
[2] = molecular target: T2, mouse melanocortin 3 receptor (mouse, UniProt P33033 1-323)
[3] = molecular target: T3, mouse melanocortin 1 receptor (mouse, UniProt Q01727 1-315)
[4] = molecular target: T4, mouse melanocortin 4 receptor (mouse, UniProt P56450 1-332)
[5] = molecular target: T1, mouse melanocortin 5 receptor; remark: listed apart in the source
[6] = molecular target: T2, mouse melanocortin 3 receptor; remark: listed apart in the source
[7] = molecular target: T3, mouse melanocortin 1 receptor; remark: listed apart in the source
[8] = molecular target: T4, mouse melanocortin 4 receptor; remark: listed apart in the source

T1 sequence (P41149 whole entry): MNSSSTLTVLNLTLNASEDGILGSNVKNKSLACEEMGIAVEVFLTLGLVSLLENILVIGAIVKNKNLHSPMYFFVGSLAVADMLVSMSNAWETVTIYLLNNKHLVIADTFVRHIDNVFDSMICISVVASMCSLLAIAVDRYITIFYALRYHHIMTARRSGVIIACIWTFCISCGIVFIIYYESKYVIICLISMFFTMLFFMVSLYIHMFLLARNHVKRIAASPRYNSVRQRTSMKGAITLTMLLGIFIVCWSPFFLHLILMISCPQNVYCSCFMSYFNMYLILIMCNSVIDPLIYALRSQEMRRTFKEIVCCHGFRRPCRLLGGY
T4 sequence (P56450 whole entry): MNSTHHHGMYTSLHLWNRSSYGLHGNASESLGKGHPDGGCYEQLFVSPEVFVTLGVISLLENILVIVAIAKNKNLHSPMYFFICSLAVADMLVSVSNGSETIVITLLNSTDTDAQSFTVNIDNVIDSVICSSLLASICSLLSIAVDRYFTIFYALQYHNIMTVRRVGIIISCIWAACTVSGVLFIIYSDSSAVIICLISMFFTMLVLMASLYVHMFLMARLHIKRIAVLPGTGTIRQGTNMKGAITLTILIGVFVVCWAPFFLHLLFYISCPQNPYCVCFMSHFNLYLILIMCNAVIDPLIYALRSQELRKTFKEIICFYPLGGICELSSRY
T2 sequence (P33033 whole entry): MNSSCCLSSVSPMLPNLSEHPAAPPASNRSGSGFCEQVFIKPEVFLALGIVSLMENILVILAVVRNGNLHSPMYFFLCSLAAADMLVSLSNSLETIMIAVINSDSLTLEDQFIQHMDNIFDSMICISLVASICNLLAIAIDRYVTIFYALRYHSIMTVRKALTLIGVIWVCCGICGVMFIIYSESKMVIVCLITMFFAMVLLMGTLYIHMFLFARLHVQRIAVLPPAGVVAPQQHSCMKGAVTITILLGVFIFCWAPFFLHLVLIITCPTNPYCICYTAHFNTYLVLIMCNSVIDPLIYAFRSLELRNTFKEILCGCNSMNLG
T3 sequence (Q01727 whole entry): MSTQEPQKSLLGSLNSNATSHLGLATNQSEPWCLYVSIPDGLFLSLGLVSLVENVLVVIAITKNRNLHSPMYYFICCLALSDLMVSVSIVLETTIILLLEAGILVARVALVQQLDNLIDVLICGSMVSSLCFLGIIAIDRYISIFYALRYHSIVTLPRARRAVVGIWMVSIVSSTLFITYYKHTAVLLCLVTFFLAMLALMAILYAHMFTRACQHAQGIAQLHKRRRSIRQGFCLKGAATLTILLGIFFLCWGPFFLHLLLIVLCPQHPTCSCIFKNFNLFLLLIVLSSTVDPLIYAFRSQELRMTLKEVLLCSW

cyclo(PH[dF]RWNA[dP]) (also: TFA salt) [MDE6-3-2c, c[Pro-His-DPhe-Arg-Trp-Asn-Ala-DPro]]
EC50 (nM), agonist, cAMP AlphaScreen [1]: 2.1 nM | EC50 (nM), agonist, cAMP AlphaScreen [2]: 300 nM | EC50 (nM), agonist, cAMP AlphaScreen [3]: 12 nM | EC50 (nM), agonist, cAMP AlphaScreen [4]: 29 nM | fold loss of agonist potency relative to MDE5-149-2c [5]: 5 fold | fold loss of agonist potency relative to MDE5-149-2c [6]: 9 fold | fold loss of agonist potency relative to MDE5-149-2c [7]: 34 fold | fold loss of agonist potency relative to MDE5-149-2c [8]: 21 fold

cyclo(PH[dF]RWN[dP]) (also: TFA salt) [MDE6-10-2c, c[Pro-His-DPhe-Arg-Trp-Asn-DPro]]
EC50 (nM), agonist, cAMP AlphaScreen [1]: 16.8 nM | apparent EC50 (nM), partial agonist, cAMP AlphaScreen [2]: 510 nM | partial agonist, percent maximal NDP stimulation [2]: 65% | EC50 (nM), agonist, cAMP AlphaScreen [3]: 50 nM | EC50 (nM), agonist, cAMP AlphaScreen [4]: 170 nM | fold decrease of agonist potency relative to MDE5-149-2c [5]: 37 fold | fold decrease of agonist potency relative to MDE5-149-2c [7]: 143 fold | fold decrease of agonist potency relative to MDE5-149-2c [8]: 121 fold

cyclo(PH[dF]RW[Dap]AF[dP]) (also: TFA salt) [MDE5-151-2c, c[Pro-His-DPhe-Arg-Trp-Dap-Ala-Phe-DPro]]
EC50 (nM), agonist, cAMP AlphaScreen [1]: 18 nM | EC50 (nM), agonist, cAMP AlphaScreen [2]: 260 nM | EC50 (nM), agonist, cAMP AlphaScreen [3]: 24 nM | apparent EC50 (nM), partial agonist, cAMP AlphaScreen [4]: 23 nM | partial agonist, percent maximal NDP stimulation [4]: 70% | fold decreased potency relative to MDE5-149-2c [7]: 70 fold

cyclo(PH[dF]RW[Dap]A[dP]) (also: TFA salt) [MDE6-5-2c, c[Pro-His-DPhe-Arg-Trp-Dap-Ala-DPro]]
EC50 (nM), agonist, cAMP AlphaScreen [1]: 0.3 nM | EC50 (nM), agonist, cAMP AlphaScreen [2]: 40 nM | EC50 (nM), agonist, cAMP AlphaScreen [3]: 1.1 nM | EC50 (nM), agonist, cAMP AlphaScreen [4]: 1.6 nM

cyclo(PH[dF]RW[Dap][dP]) (also: TFA salt) [MDE6-12-2c, c[Pro-His-DPhe-Arg-Trp-Dap-DPro]]
EC50 (nM), agonist, cAMP AlphaScreen [1]: 330 nM | percent maximal stimulatory response observed at 100 µM [2]: 65% | EC50 (nM), agonist, cAMP AlphaScreen [3]: 460 nM | EC50 (nM), agonist, cAMP AlphaScreen [4]: 950 nM | fold decrease of agonist potency relative to MDE6-5-2c [5]: 1100 fold | fold decrease of agonist potency relative to MDE6-5-2c [7]: 418 fold | fold decrease of agonist potency relative to MDE6-5-2c [8]: 593 fold

cyclo(PH[dF]RW[dP]) (also: TFA salt) [MDE5-147-2c, c[Pro-His-DPhe-Arg-Trp-DPro]]
EC50 (nM), agonist, cAMP AlphaScreen [1]: 6000 nM | percent maximal stimulatory response observed at 100 µM [2]: 60% | EC50 (nM), agonist, cAMP AlphaScreen [3]: 900 nM | percent maximal stimulatory response observed at 100 µM [4]: 65%

cyclo(P[dF]RWNAF[dP]) (also: TFA salt) [MDE5-149-1c, c[Pro-DPhe-Arg-Trp-Asn-Ala-Phe-DPro]]
EC50 (nM), agonist, cAMP AlphaScreen [1]: 40 nM | percent maximal stimulatory response observed at 100 µM [2]: 45% | EC50 (nM), agonist, cAMP AlphaScreen [3]: 400 nM | EC50 (nM), agonist, cAMP AlphaScreen [4]: 130 nM | fold decreased potency relative to MDE5-149-2c [5]: 90 fold | fold decreased potency relative to MDE5-149-2c [7]: 1140 fold | fold decreased potency relative to MDE5-149-2c [8]: 90 fold

cyclo(P[dF]RWNA[dP]) (also: TFA salt) [MDE6-3-1c, c[Pro-DPhe-Arg-Trp-Asn-Ala-DPro]]
EC50 (nM), agonist, cAMP AlphaScreen [1]: 70 nM | percent maximal stimulatory response observed at 100 µM [2]: 55% | EC50 (nM), agonist, cAMP AlphaScreen [3]: 500 nM | EC50 (nM), agonist, cAMP AlphaScreen [4]: 420 nM

cyclo(P[dF]RWN[dP]) (also: TFA salt) [MDE6-10-1c, c[Pro-DPhe-Arg-Trp-Asn-DPro]]
percent maximal stimulatory response observed at 100 µM [1]: 25% | EC50 (nM), agonist, cAMP AlphaScreen (lacked agonist activity at up to 100 µM) [2]: > 100000 nM | EC50 (nM), agonist, cAMP AlphaScreen [3]: 40 nM | EC50 (nM), agonist, cAMP AlphaScreen [4]: 1100 nM | fold increase of agonist potency over MDE5-149-1c [7]: 10 fold | fold decrease of agonist potency against MDE5-149-1c [8]: 8 fold

cyclo(P[dF]RW[Dap]AF[dP]) (also: TFA salt) [MDE5-151-1c, c[Pro-DPhe-Arg-Trp-Dap-Ala-Phe-DPro]]
EC50 (nM), agonist, cAMP AlphaScreen [1]: 46 nM | apparent EC50 (nM), partial agonist, cAMP AlphaScreen [2]: 3000 nM | partial agonist, percent maximal NDP stimulation [2]: 70% | apparent EC50 (nM), partial agonist, cAMP AlphaScreen [3]: 190 nM | partial agonist, percent maximal NDP stimulation [3]: 45% | EC50 (nM), agonist, cAMP AlphaScreen [4]: 100 nM

cyclo(PH[dF]RWNAF[dP]) (also: TFA salt) [MDE5-149-2c, c[Pro-His-DPhe-Arg-Trp-Asn-Ala-Phe-DPro]]
EC50 (nM), agonist, cAMP AlphaScreen [1]: 0.45 nM | EC50 (nM), agonist, cAMP AlphaScreen [2]: 32 nM | EC50 (nM), agonist, cAMP AlphaScreen [3]: 0.35 nM | EC50 (nM), agonist, cAMP AlphaScreen [4]: 1.4 nM

cyclo(P[dF]RW[Dap]A[dP]) (also: TFA salt) [MDE6-5-1c, c[Pro-DPhe-Arg-Trp-Dap-Ala-DPro]]
EC50 (nM), agonist, cAMP AlphaScreen [1]: 48 nM | percent maximal stimulatory response observed at 100 µM [2]: 70% | EC50 (nM), agonist, cAMP AlphaScreen [3]: 600 nM | EC50 (nM), agonist, cAMP AlphaScreen [4]: 150 nM

cyclo(P[dF]RW[Dap][dP]) (also: TFA salt) [MDE6-12-1c, c[Pro-DPhe-Arg-Trp-Dap-DPro]]
EC50 (nM), agonist, cAMP AlphaScreen (lacked agonist activity at up to 100 µM) [1]: > 100000 nM | EC50 (nM), agonist, cAMP AlphaScreen (lacked agonist activity at up to 100 µM) [2]: > 100000 nM | apparent EC50 (nM), partial agonist, cAMP AlphaScreen [3]: 110 nM | partial agonist, percent maximal NDP stimulation [3]: 75% | percent maximal stimulatory response observed at 100 µM [4]: 35%

cyclo(P[dF]RW[dP]) (also: TFA salt) [MDE5-147-1c, c[Pro-DPhe-Arg-Trp-DPro]]
percent maximal stimulatory response observed at 100 µM [1]: 75% | EC50 (nM), agonist, cAMP AlphaScreen (lacked agonist activity at up to 100 µM) [2]: > 100000 nM | EC50 (nM), agonist, cAMP AlphaScreen [3]: 1800 nM | percent maximal stimulatory response observed at 100 µM [4]: 50%
